We go through three molecules from US20240026019A1 (Innovent, published 2024).

In assay [1] the target is T1, human TNFR2 overexpressed on CHO-S cells (CHOS-hTNFR2) (human, UniProt P20333 23-461).
T1 construct: also called hTNFR2 CHO-S; human TNFR2 molecule overexpressed on CHO-S cells
T1 sequence: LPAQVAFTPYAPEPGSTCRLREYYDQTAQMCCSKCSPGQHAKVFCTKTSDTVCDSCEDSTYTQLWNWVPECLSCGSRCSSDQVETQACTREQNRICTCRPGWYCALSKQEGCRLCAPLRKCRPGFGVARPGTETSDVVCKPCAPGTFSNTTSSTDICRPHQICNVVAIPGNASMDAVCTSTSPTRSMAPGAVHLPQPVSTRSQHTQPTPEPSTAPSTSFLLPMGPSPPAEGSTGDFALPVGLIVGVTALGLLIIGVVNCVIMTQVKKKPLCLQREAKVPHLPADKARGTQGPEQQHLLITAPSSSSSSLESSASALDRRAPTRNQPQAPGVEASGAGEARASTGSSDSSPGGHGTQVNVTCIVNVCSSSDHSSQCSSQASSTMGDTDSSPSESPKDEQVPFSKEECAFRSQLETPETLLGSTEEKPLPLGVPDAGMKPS
Kind of assay: flow cytometry on CHO-S cells overexpressing human TNFR2 (chimeric antibodies), MFI-FL2-A; unit taken from the axis Conc log(nM). The procedure:
(§1) In the study, the binding of the chimeric antibodies of the present invention, after being diluted in a gradient, to a stable CHO-S cell strain overexpressing human TNFR2 on the surface was assayed by using a flow cytometer. cDNAs encoding human TNFR2 (SEQ ID NO: 60) and cynomolgus monkey TNFR2 (SEQ ID NO: 61) were cloned into pCH01.0 vectors (Invitrogen), which were transfected into CHO-S cells (Invitrogen) to produce CHO-S cells overexpressing human TNFR2 (CHOS-hTNFR2) and CHO-S cells overexpressing cynomolgus monkey TNFR2 (CHOS-cTNFR2).
(§2) CHOS-hTNFR2 cells or CHOS-cTNFR2 cells were counted and diluted to 2×10⁶ cells/mL, and added to a U-bottom 96-well plate at 100 μL/well. The mixture was centrifuged at 300 g for 5 min, and the cell medium was removed. The dilutions of the samples (the chimeric antibodies 3C4, 69B1, and 72G8 and the positive control antibody OPI) (the antibodies were subjected to a three-fold serial dilution in PBS from the maximum antibody concentration of 300 nM) were added to the U-plate, and the cells were resuspended at 100 μL/well and left to stand on ice for 30 min. The suspension was centrifuged at 400 g for 5 min, and the supernatant was removed. The cells were washed twice with PBS. The mixture was centrifuged at 300 g for 5 min, and PBS was removed. […]

Assay [2] concerns the target T2, cynomolgus monkey TNFR2 overexpressed on CHO-S cells (CHOS-cTNFR2) (cynomolgus monkey, UniProt P20333 23-461 (human entry)).
T2 construct: also called cTNFR2 CHO-S
T2 chain: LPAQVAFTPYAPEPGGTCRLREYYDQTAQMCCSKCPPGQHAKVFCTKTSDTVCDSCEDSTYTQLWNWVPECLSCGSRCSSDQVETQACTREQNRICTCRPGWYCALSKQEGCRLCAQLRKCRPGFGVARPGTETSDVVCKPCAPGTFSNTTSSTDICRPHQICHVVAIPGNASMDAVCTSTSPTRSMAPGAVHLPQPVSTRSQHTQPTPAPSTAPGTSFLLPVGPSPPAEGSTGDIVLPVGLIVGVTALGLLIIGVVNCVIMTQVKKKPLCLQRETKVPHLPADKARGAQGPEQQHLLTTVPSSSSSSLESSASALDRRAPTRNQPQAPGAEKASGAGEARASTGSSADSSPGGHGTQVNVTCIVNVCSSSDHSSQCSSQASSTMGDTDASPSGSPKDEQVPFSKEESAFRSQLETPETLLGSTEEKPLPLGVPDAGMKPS
Nature of the assay: flow cytometry on CHO-S cells overexpressing cynomolgus monkey TNFR2 (chimeric antibodies), MFI-FL2-A; unit taken from the axis Conc log(nM). The method, then:
as §1, §2

The target of assay [3] is T3, hTNFR2 protein (coated on the microplate in the blocking ELISA) (human, UniProt P20333 23-257).
T3 construct: The construct coated in the ELISA is not described (it may or may not be the immunogen, Sino biological 10417-H03H)
T3 sequence (looked up): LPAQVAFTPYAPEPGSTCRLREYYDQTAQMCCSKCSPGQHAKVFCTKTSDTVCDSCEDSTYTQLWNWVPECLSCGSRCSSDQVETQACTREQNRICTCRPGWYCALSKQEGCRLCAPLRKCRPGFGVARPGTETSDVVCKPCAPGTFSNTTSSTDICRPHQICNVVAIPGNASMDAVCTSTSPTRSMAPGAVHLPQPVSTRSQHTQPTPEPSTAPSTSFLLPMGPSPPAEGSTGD
Kind of assay: blocking ELISA: hTNFR2 coated on the plate, binding of biotinylated TNFα blocked by the antibody; unit taken from the axis Conc log(nM) [A]. The method, then: The hTNFR2 protein was resuspended and dissolved to a concentration of 2 μg/mL with PBS, and a microplate was coated with the protein and incubated overnight. The plate was blocked with 5% BSA for 1 h, and a biotinylated antigen (Recombinant Biotinylated TNFα protein (ACRO)) was diluted to 2 μg/mL and added to the plate at 10 μL/well. The antibodies prepared as described above (3C4, 69B1, and 72G8) were each diluted in a gradient starting from the maximum concentration of 300 nM for a total of 8 or 12 dilution gradients. The diluted antibodies were added at 100 μL/well and incubated in PBS on ice for 30 min. The antigen-antibody mixture was incubated in a microplate for 90 min and washed three times with PBS, and the supernatant was discarded. 100 μL of Avidin-HRP (Invitrogen) diluted at a 1:5000 ratio was added to each well, incubated at room temperature for 30 min, and washed six times with PBS. A TMB chromogenic solution (solarbio) was added to the plate at 100 μL/well for color development for 1 min, and the reaction was stopped by adding a stop buffer (solarbio) at 100 μL/well. The plate was read on a microplate reader at OD₄₅₀ and OD₆₂₀.
In a similar manner to that in Example 7, the ability of the humanized antibodies hz3C4.7, hz69b1.5, hz69b1.6, hz69b1.11, and hz69b1.20, and the control antibody OPI to block the binding of human TNFα to hTNFR2 was assayed by ELISA.

Assay [4] concerns the target T2, cynomolgus monkey TNFR2 overexpressed …. Nature of the assay: flow cytometry on CHO-S cells overexpressing cynomolgus monkey TNFR2 (positive control), MFI-FL2-A; unit taken from the axis Conc log(nM). The procedure:
as §1, §2

B1: chimeric antibody 3C4 (antibody, human IgG1, kappa, V domains shown)
VH: QVQLQQSGPELVKPGASVTISCKASDYSFTNYYIHWVKQRPGQGLEWIGWIYPGNVITKYHEKFKGKAILTADTSSTTAYMQLNSLTSEDSAVYFCARSRATGYFDYWGQGTTLTVSS
VL: DIQMTQTTSSLSASLGDRVTISCRASQDIRNYLNWFQQKPDGTIKLLIYYTSRLHSGVPSRFSGSGSGTDYSLTISNLEQEDMATYFCQQFNTLPWTFGGGTKLEIKR
As to B1, the EC50 in assay [1] was 2 nM; in assay [2], 0.355 nM. Besides, in assay [3], the IC50 was 24.2 nM.

B2: chimeric antibody 69B1 (antibody, human IgG1, kappa, V domains shown)
VH: QIQLVQSGPELKKPGETVKISCKASGYTFTDYSMNWVKQAPGKGLKWMGWLNTETGEPIYADDFKGRFVFSLETSASTAYLEINNLNDEDTATYFCAREAIYYGTSYVLDYWGQGTSVTVSS
VL: DIVLTQSPASLAVSLGQRATISCRASESVEYYGTNFMQWYQQKPGQPPKLLIYSASNVESGVPARFSGSGSGTDFSLNIHPVEEDDIAVYFCQQSRKDPSTFGEGTNLEIKR
In the case of B2, the 50% effective concentration (EC50) was determined as 3.14 nM in assay [1] and 0.324 nM in assay [2].

B3: positive control antibody OPI (humanized antibody SBT-002e in WO 2017083525) (antibody, V domains shown)
VH: QVTLKESGPALVKPTQTLTLTCTFSGFSLSTSGMGVGWIRQPPGKALEWLAHIWWDDDKFYNPSLKSRLTISKDTSKNQVVLTMTNMDPVDTATYYCARLTGTRYFDYWGQGTTVTVSS
VL: DVQMTQSPSSLSASVGDRVTITCKASQDINKFIAWYQQKPGKAPKLLIHYTSTLQPGIPSRFSGSGSGRDYTFTISSLQPEDIATYYCLQYGNLWTFGGGTKVEIK
notes: also called Benchmark OPI
In assay [4], B3 registered an EC50 of 0.431 nM. Moreover, in assay [3], the IC50 came out at 38.2 nM.
